According to PMC7054047 (The FEBS journal, 2019):

Molecular target: the molecule itself
Experiment: SEC

| Protein | stoichiometry N |
| --- | --- |
| WSCP from Arabidopsis thaliana (natural protein, UniProt Q9C7S6 24-215, looked up) NEPVKDTAGNPLNTREQYFIQPVKTESKNGGGLVPAAITVLPFCPLGITQTLLPYQPGLPVSFVLALGVGSTVMTSSAVNIEFKSNIWPFCKEFSKFWEVDDSSSAPKEPSILIGGKMGDRNSSFKIEKAGEGARANVYKLTTFYGTVGAIPGVWLSAPQLIITKDTAKTLLVKFKKVDDATTATSNLYFPG | 4 |
| WSCP M4FJ52 from Chinese cabbage (Brassica rapa subsp. Pekinensis) (natural protein) not shown | 4 |
| WSCP A0A087HRG5 from Arabis alpina (natural protein) not shown | 4 |
